Paper PMC10325900, “A conserved motif in the disordered linker of human MLH1 is vital for DNA mismatch repair and its function is diminished by a cancer family mutation” (Nucleic Acids Research, 2023)
Positions count from the first letter of the chain named. “Also recorded” adds a separate entry of the source.

B1: p.Arg385Tyr: MLH1 variant (protein, UniProt P40692 2-756, looked up, variant R385Y)
DNA mismatch repair protein …: SFVAGVIRRLDETVVNRIAAGEVIQRPANAIKEMIENCLDAKSTSIQVIVKEGGLKLIQIQDNGTGIRKEDLDIVCERFTTSKLQSFEDLASISTYGFRGEALASISHVAHVTITTKTADGKCAYRASYSDGKLKAPPKPCAGNQGTQITVEDLFYNIATRRKALKNPSEEYGKILEVVGRYSVHNAGISFSVKKQGETVADVRTLPNASTVDNIRSIFGNAVSRELIEIGCEDKTLAFKMNGYISNANYSVKKCIFLLFINHRLVESTSLRKAIETVYAAYLPKNTHPFLYLSLEISPQNVDVNVHPTKHEVHFLHEESILERVQQHIESKLLGSNSSRMYFTQTLLPGLAGPSGEMVKSTTSLTSSSTSGSSDKVYAHQMVYTDSREQKLDAFLQPLSKPLSSQPQAIVTEDKTDISSGRARQQDEEMLELPAPAEVAAKNQSLEGDTTKGTSEMSEKRGPTSSNPRKRHREDSDVEMVEDDSRKEMTAACTPRRRIINLTSVLSLQEEINEQGHEVLREMLHNHSFVGCVNPQWALAQHQTKLYLLNTTKLSEELFYQILIYDFANFGVLRLSEPAPLFDLAMLALDSPESGWTEEDGPKEGLAEYIVEFLKKKAEMLADYFSLEIDEEGNLIGLPLLIDNYVPPLEGLPIFILRLATEVNWDEEKECFESLSKECAMFYSIRKQYISEESTLSGQQSEVPGSIPNSWKWTVEHIVYKALRSHILPPKHFTEDGNILQLANLPDLYKVFERC
B2: p.Tyr379Cys: human MLH1 missense variant, c.1136A>G (protein, UniProt P40692 2-756, looked up, variant Y379C)
DNA mismatch repair protein …: B1 DNA mismatch repair protein … with Y378C, Y384R
B3: p.Arg385Glu: MLH1 control variant (protein, UniProt P40692 2-756, looked up, variant R385E)
DNA mismatch repair protein …: B1 DNA mismatch repair protein … with Y384E
B4: p.Val384Asp: human MLH1 missense variant, c.1151T>A (protein, UniProt P40692 2-756, looked up, variant V384D)
DNA mismatch repair protein …: B1 DNA mismatch repair protein … with V383D, Y384R
B5: p.Arg385His: human MLH1 missense variant, c.1154G>A (protein, UniProt P40692 2-756, looked up, variant R385H)
DNA mismatch repair protein …: B1 DNA mismatch repair protein … with Y384H
B6: p.Arg385Ala: MLH1 control variant (protein, UniProt P40692 2-756, looked up, variant R385A)
DNA mismatch repair protein …: B1 DNA mismatch repair protein … with Y384A

Tested on: G-T mismatch in a test plasmid
Assay: MMR activity of MLH1 variants (MLH1-PMS2 expressed in HEK293T cells)
Type: biochemical, human
Settings: >3 independent experiments; for DNA mismatch repair activity of MLH1 variant (in words): variant MLH1 + PMS2 transfected in HEK293T, relative to wildtype, 37°C, 15 min; for effect of second p.Arg385 alteration on the MMR defect of p.Tyr750Arg: double variants (Figure 6D)
Description: Sequence variants of the MLH1 expression vector were generated using the Q5 site directed mutagenesis system (New England Biolabs, Ipswich, MA, USA) with the appropriate primers (Supplementary Table S1).
Mismatch repair activity was assessed as described in detail before ([79],[81]) (Supplementary Figure S3). […] Mismatched DNA plasmid substrate (Supplementary Figure S3) prepared according to previously published procedures ([81–83]) was added, and reactions in a final volume of 25 μl were incubated at 37°C for 15 min. Repair efficiency was scored by purifying the mismatched DNA plasmid from the reaction and assessing the fraction of homoduplex sequence by restriction digestion of the mismatched site using EcoRV. The substrate was additionally linearized with AseI.
Figure 2. Expression and DNA mismatch repair activity of human and artificial ConMot variants. […] As a negative control, one sample was only transfected with an EGFP. After 48 h, native whole cell protein extracts were prepared. Expression was assessed by SDS-PAGE and western blotting. (A) Representative western blot of MLH1 wildtype and variant expressions. Average expression levels of MLH1 of > 5 independent transfections were determined and are given in the bar diagram below. (B) The extracts of the transfections were used to assess the DNA mismatch repair activities of the variant MLH1 proteins in comparison with wildtype (WT) MLH1-PMS2 as detailed in Materials and Methods and as shown in Supplementary Figure S3. The EGFP-transfected extract sample served as negative control. Representative agarose gels are shown in the top panel.
Figure 3. Analysis of the relevance of ConMot core and surrounding sequences. MLH1 proteins containing either the wildtype human ConMot motif sequence or variants were directly compared concerning expression and MMR activity. (A) Comparison of the ConMot variants used: the core-scramble variant sequence, the full-scramble variant sequence and an animal-plant hybrid that contains the ConMot consensus sequence of plants as it exists, for example, in walnut and mungo bean (Vigna radiata and Juglans regia). (B) Comparison of conservation in the animal versus plant ConMot in WebLogo representation. Specific differences in conservation within the sequences flanking the core MVRTD sequence are marked by red arrows above the animal sequence. (C) Western blot of the expression of the different MLH1-ConMot wildtype (WT) and the variants shown in A after transfection in HEK293T cells; negative control: transfection of EGFP. (D) MMR activities were assessed in direct comparison to negative control and wildtype human MLH1 as in Figure 2B. Average activities and standard deviations were calculated from >3 independent experiments.
Figure 6. The MMR defect of p.Tyr750Arg is partly compensated by p.Arg385Tyr. […] (B) The side chain of the highly conserved Arg385 is predicted to be in proximity to the side chain of the highly conserved Tyr750 residue. (C) MLH1-PMS2-deficient HEK293T cells were co-transfected with the indicated single- and double variants of MLH1 and PMS2. Protein extracts were prepared, separated by SDS-PAGE, blotted and probed for MLH1 protein expression. (D) MMR assays were performed to test DNA mismatch repair activity as detailed in Materials and Methods. One representative agarose gel is shown, and average repair values in comparison to wildtype and standard deviations of >3 independent experiments are shown in a bar diagram. A two-sided t-test was performed for testing significance of the difference in repair activity of p.Tyr750Arg in comparison to the double variant p.Arg385Tyr + Tyr750Arg.
Mismatched DNA plasmid substrate and principle of MMR assay.
The MMR assay is performed using as substrate a modified 2 kbp derivative of the pUC vector (pUC
CPDC Bb v) originally generated by Wang and Hays and further modified by Plotz et al. and Gonzáles-
Acosta et al . […]

| Molecule | DNA mismatch repair activity of MLH1 variant (in words) | further results |
| --- | --- | --- |
| ΔConMot: deletion variant in which the conserved ConMot sequence comprising 20 residues was removed | fully abrogated mismatch repair | DNA mismatch repair activity of MLH1 variant (in words) (listed as deletion): complete loss of MMR activity; DNA mismatch repair activity of MLH1 variant (in words) (listed as deletion of the ConMot): fully deficient in MMR |
| p.Arg385Pro: human MLH1 missense variant in the MVRTD motif | a defect similarly strong as the core-scramble variant; also recorded: most pronounced effect; also recorded: mismatch repair defect | DNA mismatch repair activity of MLH1 variant (in words) (listed as proline substitution of Arg385): loss of mismatch repair activity |
| B1 | well tolerated |  |
| B2 | did not find a catalytic defect |  |
| B3 | a defect similarly strong as the core-scramble variant | effect of second p.Arg385 alteration on the MMR defect of p.Tyr750Arg: additionally aggravated the defect |
| B4 | no detectable impairment of MMR |  |
| B5 | tolerated; also recorded: did not affect catalytic activity |  |
| B6 | a defect similarly strong as the core-scramble variant | effect of second p.Arg385 alteration on the MMR defect of p.Tyr750Arg: additionally aggravated the defect |
